From the nanobody polyreactivity screen of Harvey et al. (2022)

Test: yeast display, Sf9 membrane polyspecificity reagent, FACS + sequencing; frameworks hold sequencing errors
In short: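 A synthetic nanobody library was expressed on Saccharomyces cerevisiae BJ5465 by galactose induction for 36–48 hours. The library was stained for 1 hour at 4 °C with 10% biotinylated, detergent-solubilized Sf9 membrane reagent and enriched with streptavidin microbeads before FACS. Low and high (top ~1%) gates were set on anti-HA fluorescence for expression and streptavidin fluorescence for reagent binding, and each polyreactivity label reflects the gate of origin.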

Row | Sequence | polyreactivity (PSR sort gate)
1 | QVQLVESGGGLVQAGGSLRLSCASSGRTFNPYAMGWYRQAPGKERELVAAISRSGGGTYYADSVKGRCTISRDNAKNTVYLQMNSLKPEDTAVYYCNADRATCWEQWWYDNWGQGTQVTVSS | low polyreactivity
2 | QVQLVESGGGLVQAGGSLRLSCAASGIIFRYYAMGWYRQAPGKERELVARITSRAGRTYYADSVKGRFTISRDYAKYTVYLQMNSLKPEDTAVYYCAARLYGRYGYWGQGTQVTVSS | high polyreactivity
3 | QVQLVESGGGLVQAGGILSLSCAASGNIFAYNAMGWYRQAPGKERELVAAITDSGGNTFYADSVKGRFTISRDNAKNTVYLQMISVKPEDTAVYYCAADPDGWGFVYPRYVSWGQGTQVTVSS | low polyreactivity
4 | QVQLVESGGGLVQAGGSLRLSCAASGSTFKAYAMGWYRQAPGKERELVAAITKSGGRTYYADSVKGRFTLSRDNAKNTVYLQMNSLKPEDTAVYYCNAAAYVWKSKQRLYVITYDYWGQGTQVTVSS | high polyreactivity
5 | QVQLVESGGGLVQAGGSLRLSCAASGSTFRLYAMGWYRQAPGKERELVAAISSGGTTKYADSVKGRFTISRDNAKNTVYLQMNSLKPEDTAVYYCNRRARSYADDYWGQGTQVTVSS | high polyreactivity
6 | QVQLVESVGGLVQAGGSLRLSCAASGSIFTRNTMGWYRQAPGKERELVAAISGGGSSTYYADSVKGRFTISRDNAKNTVYLQMNSLKPEETAVYYCAASLSRNYGYACYEYWGQGTQVTVSS | high polyreactivity
7 | QVQLEDSGGGLVQAGGSLRLSCAASGFTILRYAMGWYRQAPGKERELVAAIDWYGGSTYYADSVKGRFTISRDNAKNTVFVQMNSLKPEDCAVYYCNARKINFPSRFNDWGQGTQVTVSS | low polyreactivity
8 | QVQLVESGGGLVQAGGSLRLSCAASGLIFLDYAMGWYRQAPGKERELVAAISRSGGRTYYADSVKGRFTISGDNAKNTVYLQMNSLKPEDTAVYYCAADGSRKSEIYDYWGQGTQVTVSS | high polyreactivity
9 | QVQLVESGGGLVQAGGSLRLSCAASGRTFSPYAMGWYRQAPGKERELVAAITSRGASTYYADSVKGRFTISRDNAKNTVYLQINSLKPEDTAVYYCNSGRTYRRLGDYWGQGTQVTVSS | high polyreactivity
10 | QVQLVESGGRLVQAGGSLRLSCAASGRTFFGYAMGWYRQAPGKEWELVAAISSGGRTYYADSVKGRFTISRDNAQNTVYLQMNSLKPEDTAVYSCAAQYSARYYYWGQGTQVTVSS | high polyreactivity
11 | QDQLVDSGGGLVQAGGSLRLSCAASGRTFTVYAMGWYRQAPGKERELVAAISGSSGSTDYADSVKGRFTISRDNAKNTVYLQMNSLKPEDTAVYYCAKASSATRYVQLRQDYDYWGQGTQVTVSS | low polyreactivity
12 | QVQLVESGGGLVQAGGSLRLSCAASGSTFGWYVMGWYRQAPGKEREYVASISGSGGSTYYADSVKGRFTISRDNAKNTVYLQMNSLKPEDTAVYYCAAETGWYDDWSIYDYWGHGTQVTVSS | low polyreactivity
13 | QVQLVESGAGLVQAGGSLRLSCAASGYTFSPNDMGWYRQAPGKERELVAAITSSVGSTYYADSVKGRFTISRDNAKNTVYLQMNSLKPEDTAVYYCNKQDSSYYISGGGDYDYWGQGTQVTVSS | low polyreactivity
14 | QVQLVESGGGLVQAGGSLRLSCAASGLSFSVYAMGWSRQAPGTERELVASIDLSGGNTYYADSVKGRFTISRDNAKNTVYLQMNSLKPEDTAVYYCAKYNPYYYSFSVWDGGDYWGQGTQVTVSS | low polyreactivity
15 | EVQRVESGGGLVQAGCSLRLSCAASGINFSIYAMGWYRQAPGKERELVADITYSGGRTYYADSVKGRFTISRDNAKNTVYLQLYSLKPEDTAVYYCAAVGYGDYYWGQGTQVTVSS | high polyreactivity
16 | QVQLVESGGGLVQAGGSLRLSCAASGITFYGYAMGWYRQAPGKERELVAVITSSGSSTYYADSVKGRFTISRDNAKNTVYLQMNSLKPEDTAVYDCNARPGRRSLRSRTYDYWGQGTQVTVSS | high polyreactivity
17 | QVQLVESGGGLVQAGGSLRLSCAASGFIFHRYAMGWYRQAPGKERELVATITASGGSTYYADSVKGRFTISRDNAKNTVYLQMNSLKPEDTAVYYCAAGSFSRGRRTRQYNFDYWGQGTQVTVSS | high polyreactivity
18 | QVQLVETGGGLVQAGGSLRLSCAASGSIFFDYAKGWSRQAPGKERELVAAIRWSGGRTSYADSVKGRFTISRDNAKNSVYLQMNSVKPEDTAVYYCSARWNRVRYGFDYWGQGTQVTVSS | high polyreactivity
19 | QVQLVESGGGLVQAGGSLRLSCAASGFTFPYYAMGWYRQAPGKERELVAAITGRGGSTYYADSVKGRFTISRDNAKNTVYLQMNSLKPVDTAVFYCNAVRFAIHLADPYDYWGQGTQVTVSS | high polyreactivity
20 | QVQLLESGGGLVQAGGRLRLSCAPSGRSIRYYTMGWYRQAPGKERELVAAISRSGDSTYYADSVKGRFTISRDNEKNTVYVQLKCLIPVDTAVYYCAASLVYQFCYDYWGQGTQVSVSS | high polyreactivity
21 | QVQHVESGGGLVQAGGSLRLSGAASGSTFPTIAMGWNRQAPGKEREWVADITIRAGGTSYADSVKGRFTISRDNAKNSVYLQMNSLKPQDTAVFYCARSKSSELKRLLYDSWGEGTQVTVSS | low polyreactivity
